Our source for the binding values is publication PMC3273814.

The test system of this series is T1, Ms6564 (Mycobacterium smegmatis mc2 155), ORF:45299f77.
T1 sequence: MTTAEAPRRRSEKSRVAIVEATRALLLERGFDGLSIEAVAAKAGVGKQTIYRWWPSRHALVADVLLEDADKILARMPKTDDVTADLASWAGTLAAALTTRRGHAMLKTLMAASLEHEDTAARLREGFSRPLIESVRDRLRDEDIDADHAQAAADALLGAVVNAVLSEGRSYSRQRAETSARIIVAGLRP
Description: DNase I footprinting.

As for “TTAAATCCGCTGGCCCCGATCACCAGTTTCGTCGCTGTCATAGGCCCTTGCGCTCGTGTCCTCGGGTCATAAACGAGACGGTACGTCTCGTCTTGTGGCAGAGTACGGGGTGTCACTTTTCGTGTAAAGGCCTGCGATGACCACCGCTGAAGCGCCCCGCCGGCGCAGTGAGAAGTCGCGGGTGGCCAT (double strand) [Ms6564p4 (p4-1 / p4-2)]”, the binding result is on record as “binds”.
